Tested on: MS2 coat protein
Assay: apparent KD of MS2 coat protein; designed switch direction (-1 OFF switch, 1 ON switch): -1; higher = weaker reporter binding
Method in brief: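 Stalled E. coli RNA polymerase transcribed designed RNA switches on Illumina chips, which were then titrated with SNAP-549-labelled MS2 coat protein, doubling from 0.7 or 1.5 nM to 3 µM. Steps lasted from 0.8–1.5 h at the lowest concentration to 10–20 min at the highest. The apparent KD is each design's median over clusters of curve-fitted normalised fluorescence.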

[1] = Eterna round: R95, input ligand: microRNA oligo, concentration not stated
[2] = input ligand: microRNA oligo, concentration not stated

“UUUUACUCAGGAUAUAUGAUGUGAAACAUGAGGAUCACCCAUGUAAUAUUAUGGAUGUAAAUAGAAGGGAGAUUUU [Mat - Exclusion 5 - JL mod - D17] (puzzle: Exclusion 5)” was tested, and the “apparent KD of MS2 coat protein” value (Eterna round: R95, input ligand: FMN 200 uM) was 58.8 nM, the “apparent KD of MS2 coat protein” value [1] was 62.3 nM and the “apparent KD of MS2 coat protein” value (Eterna round: R95, input ligand: none) was 78.4 nM.
In the case of “UACAUGAGGAUCACCCAUGUUUUGUCGUGUAUGGUAUUUAUCUAGGAUAUCAGUUUAUUUAUUUAUGAGAAGGAGAAUAUUAAU [JMF's solution 7] (Eterna round: R96, puzzle: Exclusion NG 3)”, the “apparent KD of MS2 coat protein” value (input ligand: FMN 200 uM) is reported as 28 nM, the “apparent KD of MS2 coat protein” value [2] is reported as 22.4 nM and the “apparent KD of MS2 coat protein” value (input ligand: none) is reported as 32.7 nM.
“AAAUUUGGAGGAUAUCCAUUGGGAAACAUGAGGAUCACCCAUGUAAUAAAAGGGAAAUCCGGAGAAGGCCAAAUUU [-20.39, -19.1 kcal, 39% A] (Eterna round: R97, puzzle: Exclusion 5)” was tested, and the “apparent KD of MS2 coat protein” value (input ligand: FMN 200 uM) was 45.7 nM and the “apparent KD of MS2 coat protein” value (input ligand: none) was 19.1 nM.
In the case of “UGUAGAGUGGUAGGAUAUCCGUCUGUUUCAGUCGGAGAAGGGCCACAGUCACUGGGUCCUAAUAUCAUGGAGACCUGAUCUACU [pwkr exNG1 F6.14] (Eterna round: R96, puzzle: Exclusion NG 1)”, the “apparent KD of MS2 coat protein” value (input ligand: FMN 200 uM) is reported as 599 nM, the “apparent KD of MS2 coat protein” value [2] is reported as 288 nM and the “apparent KD of MS2 coat protein” value (input ligand: none) is reported as 383 nM.
“AGUAACAGAGGAUAUACUGUUUUAUGUGUUUGUUGUUUUAAACAUGAGGAUCACCCAUGUAGAAGGCUGAAUAA [JMF 87] (puzzle: Exclusion 2)” was tested, and the “apparent KD of MS2 coat protein” value [1] was 18.8 nM.
With “CACCGUUAGAGAGGAUAUCGUACAUGAGGAUCACCCAUGUAAUAAAUGAGAAUUUCGGAUGUAUGCGAGAAGGCUCGAAUCGGC [Ostracism 33 - Jieux - Exclusion NG 2] (Eterna round: R96, puzzle: Exclusion NG 2)” the “apparent KD of MS2 coat protein” value [2] was 38.6 nM.
In the case of “UUUUACAUGCUGAGAUCCUACAUGAGGAUCACCCAUGUGGUCCGGAAAAUUUUGUCACCGGAUUUUGCUCGUCUUGU [salish99_S_TOV1_R5_102] (Eterna round: R97, puzzle: Sensor, turn-off variant 1)”, the “apparent KD of MS2 coat protein” value (input ligand: FMN 200 uM) is reported as 69.5 nM and the “apparent KD of MS2 coat protein” value (input ligand: none) is reported as 112 nM.
For “ACAUGAGGAUCACCCAUGUCCGGCUGGUCUGUUUCGGCUGUCGAGGAUAUAGUUCGGUGUUCGCGCUAGAAGGUGGGAGCUGGC [Aenatbe mod 58] (Eterna round: R96, puzzle: Exclusion NG 3)”, the “apparent KD of MS2 coat protein” value (input ligand: FMN 200 uM) was 160 nM, the “apparent KD of MS2 coat protein” value [2] was 106 nM and the “apparent KD of MS2 coat protein” value (input ligand: none) was 134 nM.
With “AGUGUGUGGCAGGAUAUGCGAUUUGUAAGUAUUGCAGAAGGGUCUACAUGAGGAUCACCCAUGUGUGCGGUUGA [Ex6 #25] (Eterna round: R97, puzzle: Exclusion 6)” the “apparent KD of MS2 coat protein” value (input ligand: FMN 200 uM) was 947 nM and the “apparent KD of MS2 coat protein” value (input ligand: none) was 469 nM.
With “AAGAAAGAGUUAGGAUAUACAUGAGGAUCACCCAUGUGGUGGUAAAUCCGCUGGGUCGGUUCGAUGUAGAAGGAACAACCGCCG [Inisinlaon] (Eterna round: R96, puzzle: Exclusion NG 2)” the “apparent KD of MS2 coat protein” value (input ligand: FMN 200 uM) was 281 nM, the “apparent KD of MS2 coat protein” value [2] was 18.7 nM and the “apparent KD of MS2 coat protein” value (input ligand: none) was 68.3 nM.
For “UAUUAGCAAGCGAGAUCCCACAUGAGGAUCACCCAUGUAAAGCAUCCAGAAUUACUGGGUGCAAAAGCUCGUCUUUA [Winner reversed engineered 5] (Eterna round: R97, puzzle: Sensor, turn-off variant 1)”, the “apparent KD of MS2 coat protein” value (input ligand: FMN 200 uM) was 28.7 nM and the “apparent KD of MS2 coat protein” value (input ligand: none) was 40 nM.
In the case of “AAGAAGAAACAAGCUUUUUGCACGUCAUAUAGUGACGCAACAUGAGGAUCACCCAUGUAUAGGGUGGGAAAGGAUAG [JR_SV3TOV2_Sub047] (Eterna round: R96, puzzle: Sensor v3, turn-off variant 2)”, the “apparent KD of MS2 coat protein” value (input ligand: FMN 200 uM) is reported as 669 nM, the “apparent KD of MS2 coat protein” value [2] is reported as 352 nM and the “apparent KD of MS2 coat protein” value (input ligand: none) is reported as 826 nM.
With “AUAUACGGAGGAUAUACUUGAGGAUCACCCAAGUGGGAUCCCGUUUGGGCGGUAAAUAGUAGAAGGCCGACCCA [jl-ex3-4.41 ViennaUCT mod] (Eterna round: R97, puzzle: Exclusion 3)” the “apparent KD of MS2 coat protein” value (input ligand: FMN 200 uM) was 31.3 nM and the “apparent KD of MS2 coat protein” value (input ligand: none) was 29 nM.
“UAUAUAUAGUAAGGAUAUGUAAUUAUUUUAUACACAGAAGGUACUGACAUGAGGAUCACCCAUGUUUUAGUGUGGGCAUGUAGA [JMF's solution 51] (Eterna round: R96, puzzle: Exclusion NG 1)” was tested, and the “apparent KD of MS2 coat protein” value [2] was 47.1 nM.
With “GGUUCGAAAGUGAGGAUAUGCUGGUCCUUGGAUCAGCAGAAGGCACAUGAGGAUCACCCAUGUGGUAACGGACC [Mat - Exclusion 4 - Eli Mod - D37] (Eterna round: R97, puzzle: Brourd's mod of Exclusion 4)” the “apparent KD of MS2 coat protein” value (input ligand: FMN 200 uM) was 122 nM and the “apparent KD of MS2 coat protein” value (input ligand: none) was 25.2 nM.
In the case of “GUAAUGAUUGUGAGGAUAUUUCAUAGAUAGAUAUUAGAGAAGGUACAUGAGGAUCACCCAUGUGUGAUUAUACA [Brourd's EX4 #72] (Eterna round: R97, puzzle: Brourd's mod of Exclusion 4)”, the “apparent KD of MS2 coat protein” value (input ligand: FMN 200 uM) is reported as 97.3 nM and the “apparent KD of MS2 coat protein” value (input ligand: none) is reported as 114 nM.
With “UUGAAGUCAUCAGGAUAUAGUAUUAAAGACAUUUAUAUUUUCAAACAUGAGGAUCACCCAUGUCGCUAGAAGGGAUUAUAGAUU [JR_ExcNG2_Sub080] (Eterna round: R96, puzzle: Exclusion NG 2)” the “apparent KD of MS2 coat protein” value [2] was 36.6 nM.
In the case of “CUAUUCCGAGGAUAUACAUGAGGAUCACCCAUGUCGGGCCUCUGCGUUUAGCGCGAAAGUAGAAGGUGGGUUUC [JL Riri mod 9] (Eterna round: R96, puzzle: Exclusion 3)”, the “apparent KD of MS2 coat protein” value (input ligand: FMN 200 uM) is reported as 35.5 nM, the “apparent KD of MS2 coat protein” value [2] is reported as 26.8 nM and the “apparent KD of MS2 coat protein” value (input ligand: none) is reported as 32 nM.
For “GUGCGGUGAGGAUAUACGUAGGUGAAAAUCUGUGUGUUCCUACAUGAGGAUCACCCAUGUAGAAGGCAUGGCAC [LRO-Excl2-13] (puzzle: Exclusion 2)”, the “apparent KD of MS2 coat protein” value [1] was 90.5 nM.
With “AAGAAACAUGAGGAUCACCCAUGUGAGGAUAUGAGCACGCCGGUGACGGUGAUAAGAAUCAGAAGGCACAAAGG [JL-ex1-4.34 salish99 mod] (Eterna round: R97, puzzle: Exclusion 1)” the “apparent KD of MS2 coat protein” value (input ligand: FMN 200 uM) was 93 nM and the “apparent KD of MS2 coat protein” value (input ligand: none) was 77.8 nM.
In the case of “AAAGAACAUGAGGAUCACCCAUGUGAGGAUAUGCGAAAACCGCUGGCGCACCAGACGGGCAGAAGGCAUAUGGU [Aonustiri] (puzzle: Exclusion 1)”, the “apparent KD of MS2 coat protein” value [1] is reported as 48.9 nM.
For “ACAUGAGGAUCACCCAUGUAAUGAUGGGUACUAUAUUAUUCGUAGGAUAUCGUUGUUAGUUUGUGCGAGAAGGACGAUUGCUUU [JR_ExcNG3_Sub057] (Eterna round: R96, puzzle: Exclusion NG 3)”, the “apparent KD of MS2 coat protein” value [2] was 733 nM.
With “AAGAGCAAGGCAGGAUAUCACAUGAGGAUCACCCAUGUAUCCGAAAGAACAACGCCCGCGUUGUGUGAGAAGGGUCUAUGCAGG [Eternabot solution 10] (Eterna round: R96, puzzle: Exclusion NG 2)” the “apparent KD of MS2 coat protein” value (input ligand: FMN 200 uM) was 370 nM, the “apparent KD of MS2 coat protein” value [2] was 61.6 nM and the “apparent KD of MS2 coat protein” value (input ligand: none) was 75.8 nM.
“CCUCUAACCUAGGAUAUAGGUAGACCUAGUCGCCUAGAAGGAGGUACAUGAGGAUCACCCAUGUAUAUUGGGCU [Inmaor] (puzzle: Exclusion 6)” was tested, and the “apparent KD of MS2 coat protein” value [1] was 173 nM.
With “ACAUGAGGAUCACCCAUGUUUGUUGGGUACUCUUUUUACAGCAAGGAUAUGCAUGUUUUUUUUACGCAGAAGGUGCUGGACGUC [JR_ExcNG3_Sub068] (Eterna round: R96, puzzle: Exclusion NG 3)” the “apparent KD of MS2 coat protein” value (input ligand: FMN 200 uM) was 381 nM, the “apparent KD of MS2 coat protein” value [2] was 163 nM and the “apparent KD of MS2 coat protein” value (input ligand: none) was 653 nM.
